Assay results reported in PMC3196555.

Columns and labels:
myc-SH2B3 (human) = myc-SH2B3 (human) (UniProt Q9UQQ2); assay: co-IP; 293T cells transfected with pCMV5-TrkA and a myc construct, 100 ng/ml NGF for 15 min; RIPA lysate precipitated with anti-myc antibody, blotted with anti-myc and anti-TrkA
TrkA = TrkA (UniProt P35739); assay: co-IP; 293T cells transfected with pCMV5-TrkA and a myc construct, 100 ng/ml NGF for 15 min; RIPA lysate precipitated with anti-TrkA antibody, blotted with anti-TrkA and anti-myc

TrkA, sequence (P35739 33-799): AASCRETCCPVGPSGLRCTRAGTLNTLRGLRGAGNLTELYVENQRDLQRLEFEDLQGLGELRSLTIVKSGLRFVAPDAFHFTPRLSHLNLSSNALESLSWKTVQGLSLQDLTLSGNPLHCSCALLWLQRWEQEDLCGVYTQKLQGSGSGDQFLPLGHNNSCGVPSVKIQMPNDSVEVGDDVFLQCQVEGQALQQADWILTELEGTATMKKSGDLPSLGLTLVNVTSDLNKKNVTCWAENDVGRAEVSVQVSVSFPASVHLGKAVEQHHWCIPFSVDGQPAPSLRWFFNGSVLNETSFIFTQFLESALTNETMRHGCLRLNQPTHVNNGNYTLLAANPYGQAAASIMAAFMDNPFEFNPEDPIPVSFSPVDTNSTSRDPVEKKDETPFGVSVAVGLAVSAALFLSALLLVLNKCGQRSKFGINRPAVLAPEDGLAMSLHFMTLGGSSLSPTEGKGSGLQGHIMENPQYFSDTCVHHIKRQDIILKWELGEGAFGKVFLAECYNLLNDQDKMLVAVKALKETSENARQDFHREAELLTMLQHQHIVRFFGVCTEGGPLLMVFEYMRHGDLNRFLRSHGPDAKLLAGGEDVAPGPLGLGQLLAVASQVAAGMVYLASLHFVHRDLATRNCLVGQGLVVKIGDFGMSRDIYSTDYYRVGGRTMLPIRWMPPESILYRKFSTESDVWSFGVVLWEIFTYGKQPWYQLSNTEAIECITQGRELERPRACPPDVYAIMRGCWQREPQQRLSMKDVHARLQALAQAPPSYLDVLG

| Substance | relative amount of TrkA co-precipitated, as percent of that with SH2B1β (myc-SH2B3 (human)) [%] | relative amount co-precipitated with TrkA, as percent of SH2B1β (TrkA) [%] |
| --- | --- | --- |
| TrkA (from UniProt P35739 33-799) (receptor) | 10 | – |
| myc-SH2B3 (from UniProt Q9UQQ2 1-575) (natural protein) | – | 88 |
